Source: patent US20260146103A1 (J DAVID GLADSTONE INSTITUTES A TESTAMENTARY TRUST …, published 2026)

T1: fibrinogen (UniProt P02671 20-629; P02675 31-491; P02679 27-437, limits assumed)
T1 construct: also called IgG-depleted fibrinogen
T1 sequence (looked up) 1: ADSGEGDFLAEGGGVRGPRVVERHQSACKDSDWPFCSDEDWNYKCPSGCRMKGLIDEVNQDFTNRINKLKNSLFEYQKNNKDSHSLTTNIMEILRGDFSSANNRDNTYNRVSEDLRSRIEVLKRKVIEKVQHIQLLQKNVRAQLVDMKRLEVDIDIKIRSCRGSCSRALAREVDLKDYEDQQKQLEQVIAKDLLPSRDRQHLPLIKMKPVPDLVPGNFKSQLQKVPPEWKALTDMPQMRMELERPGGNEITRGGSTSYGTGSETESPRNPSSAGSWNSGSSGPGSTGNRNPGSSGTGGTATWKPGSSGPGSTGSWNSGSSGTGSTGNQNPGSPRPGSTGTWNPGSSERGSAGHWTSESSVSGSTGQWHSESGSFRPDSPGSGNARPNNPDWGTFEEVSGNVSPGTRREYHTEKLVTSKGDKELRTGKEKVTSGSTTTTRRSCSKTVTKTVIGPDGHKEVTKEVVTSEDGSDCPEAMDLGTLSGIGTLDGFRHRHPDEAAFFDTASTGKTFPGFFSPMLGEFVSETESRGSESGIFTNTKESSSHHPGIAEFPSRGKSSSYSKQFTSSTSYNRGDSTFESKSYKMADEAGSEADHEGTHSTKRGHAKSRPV
T1 sequence (looked up) 2: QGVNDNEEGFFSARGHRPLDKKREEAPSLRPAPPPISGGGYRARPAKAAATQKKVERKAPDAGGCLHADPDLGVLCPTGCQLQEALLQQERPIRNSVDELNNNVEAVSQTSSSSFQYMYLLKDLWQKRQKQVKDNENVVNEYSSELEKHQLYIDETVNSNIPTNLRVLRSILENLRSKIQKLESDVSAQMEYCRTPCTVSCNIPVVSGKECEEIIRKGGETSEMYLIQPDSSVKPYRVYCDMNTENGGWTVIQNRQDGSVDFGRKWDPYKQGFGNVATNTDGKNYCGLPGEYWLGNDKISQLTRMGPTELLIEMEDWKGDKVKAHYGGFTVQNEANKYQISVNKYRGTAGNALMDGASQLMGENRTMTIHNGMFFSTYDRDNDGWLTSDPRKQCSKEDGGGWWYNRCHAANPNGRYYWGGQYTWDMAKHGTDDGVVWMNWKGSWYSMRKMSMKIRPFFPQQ
T1 sequence (looked up) 3: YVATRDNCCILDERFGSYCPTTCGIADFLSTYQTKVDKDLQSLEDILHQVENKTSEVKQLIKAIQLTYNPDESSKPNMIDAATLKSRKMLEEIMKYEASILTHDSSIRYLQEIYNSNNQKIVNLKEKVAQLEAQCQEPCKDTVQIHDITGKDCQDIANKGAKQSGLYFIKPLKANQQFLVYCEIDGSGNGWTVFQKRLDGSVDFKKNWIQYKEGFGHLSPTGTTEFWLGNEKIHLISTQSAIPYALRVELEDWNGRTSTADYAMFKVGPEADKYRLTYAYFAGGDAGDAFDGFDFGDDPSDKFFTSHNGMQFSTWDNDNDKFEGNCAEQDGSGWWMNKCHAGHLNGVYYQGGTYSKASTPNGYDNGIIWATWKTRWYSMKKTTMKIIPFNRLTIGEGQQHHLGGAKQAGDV

T2: fibrin (UniProt P02671 36-629; P02675 45-491; P02679 27-437)
T2 construct: also called IgG-depleted fibrin; fibrin networks
T2 sequence (looked up) 1: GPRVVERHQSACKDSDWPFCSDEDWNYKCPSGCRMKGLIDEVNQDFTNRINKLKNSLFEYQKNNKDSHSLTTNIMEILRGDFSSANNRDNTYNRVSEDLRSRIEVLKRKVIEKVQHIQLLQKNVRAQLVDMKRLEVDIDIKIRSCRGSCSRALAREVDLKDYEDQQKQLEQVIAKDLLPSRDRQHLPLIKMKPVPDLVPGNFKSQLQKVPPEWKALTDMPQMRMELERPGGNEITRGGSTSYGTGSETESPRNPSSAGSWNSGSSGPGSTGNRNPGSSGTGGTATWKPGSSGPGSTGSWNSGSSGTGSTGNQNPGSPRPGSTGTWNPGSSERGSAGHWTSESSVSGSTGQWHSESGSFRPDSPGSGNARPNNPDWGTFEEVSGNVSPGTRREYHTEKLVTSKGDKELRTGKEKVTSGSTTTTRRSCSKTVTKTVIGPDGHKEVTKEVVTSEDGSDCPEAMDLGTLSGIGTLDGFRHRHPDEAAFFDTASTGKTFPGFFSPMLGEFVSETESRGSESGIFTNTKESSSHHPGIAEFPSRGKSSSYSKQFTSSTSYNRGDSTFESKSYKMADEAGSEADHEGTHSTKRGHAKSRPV
T2 sequence (looked up) 2: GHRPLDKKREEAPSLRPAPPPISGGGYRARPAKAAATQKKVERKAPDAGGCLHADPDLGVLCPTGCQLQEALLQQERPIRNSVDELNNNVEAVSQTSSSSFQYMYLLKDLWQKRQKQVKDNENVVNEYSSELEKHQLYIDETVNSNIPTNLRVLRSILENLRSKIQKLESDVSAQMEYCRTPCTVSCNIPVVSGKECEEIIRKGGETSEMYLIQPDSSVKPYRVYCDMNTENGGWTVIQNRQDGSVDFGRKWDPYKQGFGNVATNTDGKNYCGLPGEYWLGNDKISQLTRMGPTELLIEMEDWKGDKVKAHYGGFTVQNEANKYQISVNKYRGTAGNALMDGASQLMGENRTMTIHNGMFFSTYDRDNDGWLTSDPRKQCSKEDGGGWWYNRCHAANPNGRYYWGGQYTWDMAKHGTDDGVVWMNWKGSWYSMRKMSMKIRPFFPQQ
T2 sequence (looked up) 3: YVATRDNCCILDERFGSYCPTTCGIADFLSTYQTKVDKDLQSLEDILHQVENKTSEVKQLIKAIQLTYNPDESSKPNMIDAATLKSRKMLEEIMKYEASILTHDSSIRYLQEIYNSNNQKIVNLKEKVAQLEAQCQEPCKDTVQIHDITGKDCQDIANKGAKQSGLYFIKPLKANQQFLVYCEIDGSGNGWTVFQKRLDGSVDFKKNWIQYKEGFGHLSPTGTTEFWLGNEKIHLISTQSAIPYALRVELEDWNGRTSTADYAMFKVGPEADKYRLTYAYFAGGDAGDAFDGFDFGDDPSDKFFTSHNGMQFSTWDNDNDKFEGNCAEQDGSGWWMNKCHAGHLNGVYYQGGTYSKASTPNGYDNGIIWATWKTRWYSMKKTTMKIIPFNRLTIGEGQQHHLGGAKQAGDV

T3: P2 peptide (YSMKETTMKIIPFNRLTIG)
T3 peptide: YSMKETTMKIIPFNRLTIG


Key:
[1] = biological target: FIBG 331-345 peptide (human) (UniProt P02679); assay: solid phase ELISA, 30 µM FIBG331-345 peptide coated
fibrinogen = biological target: T1, fibrinogen; assay: solid phase ELISA, 25 µg/mL IgG-depleted fibrinogen coated, 12-point 3-fold dilution
Method: (§1) Solid phase ELISA was used to assess whether Antibody G binds to fibrinogen and fibrin separately. Antibody G was incubated for 2 hours at 37° C. on 25 μg/mL IgG-depleted fibrinogen or fibrin in 20 mM HEPES buffer, pH7.2, coated and dried overnight in high protein-binding ELISA plates.

fibrin = biological target: T2, fibrin; assay: solid phase ELISA, 25 µg/mL IgG-depleted fibrin coated, 12-point 3-fold dilution
Method: as §1
Solid phase ELISA was used to assess murine Antibody G binding to fibrin. Antibody G was incubated for 2 hours at 37° C. on 25 μg/mL IgG-depleted fibrin in 20 mM HEPES buffer, pH7.2, coated and dried overnight in high protein-binding ELISA plates.

[2] = biological target: T3, P2 peptide (YSMKETTMKIIPFNRLTIG); assay: solid phase ELISA, 30 µM P2 peptide coated
Method: Based on the fibrinogen peptide profiling (FIG. 8), 15mers were selected to carry out individual peptide binding validation using solid phase ELISA. High purity 15mers were synthesized (Genemed) and then each were diluted at 30 μM in 20 mM HEPES buffer, coated in separate wells and dried overnight. Antibody G was incubated on peptide coated wells for 2 hours at 37° C., at a concentration of 25 or 50 μg/mL.

Binder | Kd [1] | Kd (fibrinogen) | Kd (fibrin) | Kd [2]
Antibody G (45-C1C3) (antibody, V domains shown, also called mAb G; Ab G) VH: EVQLVESGGGAVQPGRSLRLSCAASGVSFSNIGMHWVRQAPGKGLEWVALISSDGRHTHYADSVKGRFTISRDNSENTLYLQINGLRADDTAVYYCAKGLDTRARYMGKFYTFDYWGQGTLVTVSS VL: DIQLTQSPSSLSASVGDRVTITCRASQNIGVNLNWYQQRPGKGPKLLVSSTFSLQSGVPSRFSASGAGTNFTLTISSLQPEDYVTYYCQQSYSSPFTFGPGTKVDIK | 360 nM | 660 nM | 160 nM | 11.8 µM
murine Antibody G (mu-AbG) (antibody, mouse IgG2a, kappa, V domains shown, Variable domains of Antibody G with mouse IgG2a heavy and mouse kappa light constant regions; also called murine mAb G) VH: EVQLVESGGGAVQPGRSLRLSCAASGVSFSNIGMHWVRQAPGKGLEWVALISSDGRHTHYADSVKGRFTISRDNSENTLYLQINGLRADDTAVYYCAKGLDTRARYMGKFYTFDYWGQGTLVTVSS VL: DIQLTQSPSSLSASVGDRVTITCRASQNIGVNLNWYQQRPGKGPKLLVSSTFSLQSGVPSRFSASGAGTNFTLTISSLQPEDYVTYYCQQSYSSPFTFGPGTKVDIKR |  |  | 40 nM | 
